# In patent US20110165265A1, “TRAIL VARIANTS FOR TREATING CANCER” (FUNDACIÓ GENÒMICA (CRG), priority 2007, published 2011):
# Positions count from the first letter of the chain named. Numbers in names are those of the source.
# T1: DcR1 (Homo sapiens, UniProt O14798)
# T1 construct: soluble, recombinant DcR1-Ig (sDcR1) and DcR2-Ig (sDcR2); purchased R&D Systems
# T1 sequence (O14798 26-236 limits assumed): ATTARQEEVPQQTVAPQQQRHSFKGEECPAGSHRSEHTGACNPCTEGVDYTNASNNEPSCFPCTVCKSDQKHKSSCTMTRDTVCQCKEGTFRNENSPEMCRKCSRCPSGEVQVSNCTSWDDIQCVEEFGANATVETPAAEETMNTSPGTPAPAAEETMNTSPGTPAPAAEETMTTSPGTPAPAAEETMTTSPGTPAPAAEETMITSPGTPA
# T2: DcR2 (Homo sapiens, UniProt Q9UBN6)
# T2 construct: soluble, recombinant DcR1-Ig (sDcR1) and DcR2-Ig (sDcR2); purchased R&D Systems
# T2 sequence (Q9UBN6 56-211 limits assumed): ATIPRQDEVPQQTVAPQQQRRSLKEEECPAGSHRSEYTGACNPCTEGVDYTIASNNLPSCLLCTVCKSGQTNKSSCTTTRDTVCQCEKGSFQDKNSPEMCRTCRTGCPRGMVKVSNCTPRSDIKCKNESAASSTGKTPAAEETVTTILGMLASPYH
# B1: M1: rhTRAIL carrying mutations D269H, E194I and I196S (protein, UniProt P50591 1-281, looked up, variant D269H E194I I196S)
# Tumor necrosis factor ligand …: MAMMEVQGGPSLGQTCVLIVIFTVLLQSLCVAVTYVYFTNELKQMQDKYSKSGIACFLKEDDSYWDPNDEESMNSPCWQVKWQLRQLVRKMILRTSEETISTVQEKQQNISPLVRERGPQRVAAHITGTRGRSNTLSSPNSKNEKALGRKINSWESSRSGHSFLSNLHLRNGELVIHEKGFYYIYSQTYFRFQIESKENTKNDKQMVQYIYKYTSYPDPILLMKSARNSCWSKDAEYGLYSIYQGGIFELKENDRIFVSVTNEHLIDMHHEASFFGAFLVG
# B2: D269HT214R: TRAIL variant containing mutations D269H and T214R (protein, UniProt P50591 1-281, looked up, variant D269H T214R)
# Tumor necrosis factor ligand …: B1 Tumor necrosis factor ligand … with I194E, S196I, T214R
# B3: D269H: rhTRAIL carrying mutation D269H; DR5-selective TRAIL variant (protein)
# chain: MVRERGPQRVAAHITGTRGRSNTLSSPNSKNEKALGRKINSWESSRSGHSFLSNLHLRNGELVIHEKGFYYIYSQTYFRFQEEIKENTKNDKQMVQYIYKYTSYPDPILLMKSARNSCWSKDAEYGLYSIYQGGIFELKENDRIFVSVTNEHLIDMHHEASFFGAFLVG
# Assays:
# [1] = tested on: SW948 cells; assay: Cell survival / sensitivity of SW948; assay type: cell-based
# [2] = tested on: LoVo cells; assay: Cell survival / sensitivity of LoVo; assay type: cell-based
# Excerpt: C) Effect of increasing concentration of 5-Flurouracil on Lovo cells.
# [3] = tested on: Caski cells; assay: Cell survival / sensitivity of Caski; assay type: cell-based
# [4] = tested on: HeLa cells; assay: Cell survival / sensitivity of HeLa; assay type: cell-based
# Method: (B) Effect of increasing of Bortezomib on cell viability. Hela cells appear to tolerate higher concentration of Bortezomib compared to Caski and SIHA cells (C) Combination therapy with 10 nM Bortezomib incubated for 24 h lead to further decreases in cell viability in cells treated with both TRAIL and two of the DR5 mutants (D) Radiation therapy in combination with TRAIL or the DR5 mutants further decrease cell viability in HELA cells. The DR5 mutant show decrease cell viability at lower concentration of ligand compared to TRAIL.
# [5] = tested on: Colo205 cells; assay: Cell survival / sensitivity of Colo205; assay type: cell-based; conditions: Colo205
# Method: (B) Effect of increasing concentrations of Aspirin on cell viability. (C) Effect of increasing concentrations of 5-Flurouracil on cell viability. (D) Combination therapy with 5 mM Aspirin pre-incubated for 24 h lead to further decreases in cell viability in cells treated with both TRAIL and two of the DR5 mutants. (E) 30 minute incubation of DR5 mutants, were sufficient decrease cell viability which was further augmented when cells were pre-incubated for 24 h with Aspirin. The shorter incubation period lead to a decrease potency of TRAIL alone or in combination with Aspirin. […] (G) 30 min incubation of the DR5 mutant was sufficient to decrease cell viability which was not enhanced by 5-Flurouracil, and once again the decease potency of TRAIL is seen. Proteins are indicated as follows: TRAIL stands for rhTRAIL WT; D269H stands for rhTRAIL carrying mutation D269H; E195R stands for rhTRAIL carrying mutations D269H and E195R; and M1 stands for rhTRAIL carrying mutations D269H, E194I and I196S.
# TRAIL-induced cell death as a function of concentration was measured with the MTS assay.
# [6] = tested on: ML-1 cells; assay: Cytotoxicity in ML-1 cells; assay type: cell-based
# Method: (§1) Colo205 and ML-1 cells were then treated with increasing concentrations of TRAIL or the DR5-specific variants D269H, D269HE195R, and D269H/T214R, and their cytotoxic potential was measured with a 3-(4,5-dimethylthiazol-2-yl)-2,5-diphenyl tetrazolium bromide (MTT) assay.
# [7] = tested on: A2780 cells; assay: MTT cytotoxicity in A2780 (Example 6); assay type: cell-based; conditions: A2780 (FIG. 8E)
# [8] = tested on: A2780 cells; assay: Annexin V apoptosis assay in A2780; assay type: cell-based, human; conditions: A2780 ovarian cancer cells
# [9] = tested on: Colo205 cells; assay: MTT cytotoxicity and DR4/DR5 neutralizing antibodies in Colo205; assay type: cell-based, human; conditions: Colo205, at a lower concentration (FIG. 8C)
# Method: To assess the biological activity related to DR5 binding, various cancer cells were used. Colo205 colon carcinoma cells and ML-1 […] myeloid leukemia cells express all four TRAIL receptors on the cell surface, as shown by using FACS analysis (FIG. 7), and are sensitive to TRAIL-induced apoptosis. To test the involvement of DR4 versus DR5 in TRAIL-induced cell death, Colo205 cells were treated with neutralizing anti-DR4 or anti-DR5 antibody for 1 h before the addition of TRAIL. […] In contrast, the DR4 pathway is the major mediator of TRAIL-induced apoptosis in ML-1 cells (FIG. 8A.) To examine whether the DR5-specific TRAIL variants induce cell death in Colo205 cells by way of the DR5 receptor, 1 μg/ml neutralizing anti-DR4 or -DR5 antibodies were administered 1 h before ligand treatment.
# as §1
# [10] = tested on: Colo205 cells; assay: Colo205 apoptosis after pre-incubation of ligand with soluble receptor-Ig; assay type: cell-based, human; conditions: 10 ng/ml ligand
# Method: (A) Effect of soluble recombinant DcR1-Ig (sDcR1) on apoptosis induction by TRAIL and DR5-selective variants. […] All graphs are representatives of two independent repeats. (D) Neutralizing antibodies against DcR1 and DcR2 can augment wtTRAIL- but not DR5-variant induced cell death. […] Induction of apoptosis was measured 3 h post-treatment using Annexin V assay. […] The graphs show the average±SEM of three independent experiments.
# Induction of cell death was assessed by Annexin V assay 3 h after treatment (FIG. 14), as described above. […] (FIG. 14C). This confirms that the observed differences in blocking efficacy are due to reduced ability of the decoy receptors to bind and inhibit D269H and D269HE195R.
# [11] = tested on: Human dermal fibroblasts; assay: MTT viability of human dermal fibroblasts; assay type: cell-based; conditions: 50-500 ng/ml, 24 h
# Method: (§2) Human dermal fibroblasts were grown in low glucose DMEM (Sigma) supplemented with 10% fetal calf serum, 50 U/ml penicillin and […] streptomycin; human umbilical vein endothelial cells (HUVEC, PromoCell) were cultured in Endothelial Cell Growth Medium with SupplementMix (PromoCell). Fibroblasts and HUVEC cells were seeded at 1.3×10^5 cells/ml 24 h before treatment with increasing concentrations of TRAIL and DR5-selective variants, D269H and D269HE195R (50-500 ng/ml) for 24 h and cell viability was measured using MTT assay, wherein 200 μg/ml MTT (3-(4,5-dimethylthiazo1-2-yl)-2,5-diphenyl-tetrazolium bromide) was added to control and treated cells and incubated for 3 h at 37° C. The reaction was stopped and the purple formazan precipitate formed was dissolved using dimethyl sulfoxide (DMSO) and the colour intensity was measured at 550 nm on a Wallac multilabel counter. The control value corresponding to untreated cells was taken as 100% and the viability of treated samples was expressed as a percentage of the control. (FIG. 15).
# [12] = biological target: T3, DR4 (Homo sapiens, UniProt O00220); conditions: earlier work referred to; cited from earlier work
# T3 construct: the more commonly used dimeric TRAIL-receptor-IgG Fc chimeric constructs
# T3 sequence (O00220 24-239 limits assumed): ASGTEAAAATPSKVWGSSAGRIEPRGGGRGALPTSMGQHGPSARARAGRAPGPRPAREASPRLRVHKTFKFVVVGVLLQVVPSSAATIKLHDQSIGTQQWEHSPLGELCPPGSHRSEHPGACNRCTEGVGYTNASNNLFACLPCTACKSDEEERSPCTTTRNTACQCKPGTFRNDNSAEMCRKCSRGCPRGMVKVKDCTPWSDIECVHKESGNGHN
# [13] = tested on: human umbilical vein endothelial cells (HUVEC); assay: Viability of HUVEC; assay type: cell-based; conditions: 50-500 ng/ml, 24 h, MTT
# Method: as §2
# [14] = biological target: T4, DR5 (Homo sapiens, UniProt O14763); conditions: earlier work referred to; cited from earlier work
# T4 construct: Effect of soluble recombinant DR5-Ig (sDR5) on apoptosis induction
# [15] = biological target: T1, DcR1; assay: SPR receptor binding assay, immobilized DcR1-Ig; conditions: 0.1-250 nM ligand
# Method: (§3) The response data (in response units) as a function of TRAIL concentration were fitted using a four parameter equation to give an apparent pre-steady state affinity constant.
# (§4) Binding experiments were performed at 37° C. using a surface plasmon resonance-based biosensor (Biacore 3000, Biacore AB, Uppsala, Sweden) as previously described^10. In short, DcR1-Ig and DcR2-Ig receptor chimeras (R&D Systems) were captured at a 35 μl/min flow rate using a protein A (Sigma) modified CM5 sensor chip (Biacore). Receptor chimeras were captured at a level of ˜500-800 response units (RU). […] Binding of ligands to the receptors was monitored in real-time. Between injections the protein A sensor surface was regenerated using a 30s pulse of 0.1 M glycine 0.5 M NaCl pH 3. Due to the very slow dissociation of the TRAIL-receptor complex, only pre-steady state binding data could be obtained. In order to obtain data that represent proper high-affinity complex formation, the response at each concentration was recorded 30 sec after the end of the injection. The response data (in response units) as a function of TRAIL concentration were fitted using a four parameter equation to give an apparent pre-steady state affinity constant.
# (§5) Affinity of the ligands was assessed by measuring receptor binding in a concentration range of 0.1-250 nM.
# [16] = biological target: T2, DcR2; assay: SPR receptor binding assay, immobilized DcR2-Ig; conditions: 0.1-250 nM ligand
# Method: as §3, §4, §5
Molecule,"cell viability, single agent [1]","cell viability, single agent [2]","cell viability, single agent [3]","cell viability, single agent [4]","cell viability, single agent [5]",cell death induction [6],cytotoxic activity compared with wild-type TRAIL [7],increase in apoptosis / efficiency compared to wtTRAIL [8],increase of apoptosis rate compared to wtTRAIL [9] [fold],effect of pre-incubation with sDcR2 on apoptosis induction [10],effect of pre-incubation with sDcR1 on pro-apoptotic activity ([10]; sDcR1 up to 2 μg/ml),cell viability [11],binding to DR4 [12],cell viability [13],affinity for the DR5 receptor [14],"binding towards DcR1, reduction compared to wtTRAIL [15]",binding toward DcR2 compared to wtTRAIL [16]
B1,decreased cell viability,equal decrease in cell viability,comparable,comparable,significantly less cell viability than TRAIL,,,,,,,,,,,,
B2,,,,,,only TRAIL was able to induce cell death,significantly increased,2 fold,1.5,,,,,,,,
B3,decreased cell viability,equal decrease in cell viability,comparable,comparable,significantly less cell viability than TRAIL,only TRAIL was able to induce cell death,significantly increased,3-4 fold,,only at a two fold higher concentration than for wtTRAIL,failed to reduce,did not result in a decrease in cell viability,highly reduced,did not result in a decrease in cell viability,increased,approximately 20 fold,reduced
